Assay results: article PMC3699631, “Posttranslational Modifications of the Histone 3 Tail and Their Impact on the Activity of Histone Lysine Demethylases In Vitro” (PLoS ONE, 2013)
“Also recorded” adds a separate entry of the source.

Target: T1, human FL-KDM4C (Homo sapiens, UniProt Q9H3R0)
T1 construct: along with the full length FL- KDM4C and FL-KDM4A using various synthetic histone tail peptides as substrates; His6 (N); FLAG (N); made in house; host or cells: High Five (Trichoplusia ni) insect cells, baculovirus
T1 sequence (Q9H3R0 1-1056): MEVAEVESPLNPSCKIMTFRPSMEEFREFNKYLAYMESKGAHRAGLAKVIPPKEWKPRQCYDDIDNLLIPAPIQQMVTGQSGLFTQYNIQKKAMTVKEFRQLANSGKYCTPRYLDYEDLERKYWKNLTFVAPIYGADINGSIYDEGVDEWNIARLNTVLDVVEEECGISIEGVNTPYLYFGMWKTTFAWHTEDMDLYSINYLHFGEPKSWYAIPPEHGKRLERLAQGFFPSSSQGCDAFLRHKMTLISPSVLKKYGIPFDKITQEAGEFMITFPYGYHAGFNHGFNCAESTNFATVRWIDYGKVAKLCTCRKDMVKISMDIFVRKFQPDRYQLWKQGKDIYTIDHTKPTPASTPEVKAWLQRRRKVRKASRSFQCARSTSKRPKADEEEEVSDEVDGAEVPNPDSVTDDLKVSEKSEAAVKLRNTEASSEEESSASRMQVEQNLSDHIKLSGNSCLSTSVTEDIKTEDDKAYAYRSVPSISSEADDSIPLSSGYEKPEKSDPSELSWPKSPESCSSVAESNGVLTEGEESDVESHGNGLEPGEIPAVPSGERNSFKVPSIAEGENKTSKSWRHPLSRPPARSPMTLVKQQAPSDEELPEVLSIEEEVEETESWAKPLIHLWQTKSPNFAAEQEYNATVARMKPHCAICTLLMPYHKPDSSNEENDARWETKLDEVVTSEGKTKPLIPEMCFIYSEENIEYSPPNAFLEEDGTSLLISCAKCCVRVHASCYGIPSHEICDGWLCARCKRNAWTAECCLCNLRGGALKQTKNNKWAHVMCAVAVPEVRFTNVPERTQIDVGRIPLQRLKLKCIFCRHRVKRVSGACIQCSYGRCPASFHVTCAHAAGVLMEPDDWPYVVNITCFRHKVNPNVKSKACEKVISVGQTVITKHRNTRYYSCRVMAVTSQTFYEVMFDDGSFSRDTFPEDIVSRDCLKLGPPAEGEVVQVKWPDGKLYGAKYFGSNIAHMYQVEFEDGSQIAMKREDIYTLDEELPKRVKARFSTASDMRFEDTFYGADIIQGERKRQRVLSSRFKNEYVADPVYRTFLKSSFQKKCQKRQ
Test: FDH-assay enzyme kinetics of H3 peptide demethylation, full length KDM4C
Format: biochemical
Parameters: key to K m / k cat / k cat /K m: 0 means no demethylation could be detected
Details: for demethylation / catalytic activity (in words) / K m / k cat / k cat /K m: FDH-assay; for K m: 50 mM HEPES (pH 7.5), 50 mM NaCl, 50 µM FeSO4, 500 µM α-KG, 500 µM ascorbate, 2 mM NAD, substrate 10–1000 µM, NADH fluorescence 15–30 minutes; for K m / k cat: triplicate; for k cat: pH 7.5, NADH fluorescence; for k cat /K m: pH 7.5, triplicate
Description: The enzyme kinetics were measured using a Formaldehyde DeHydrogenase Assay (FDH-Assay) and the demethylation of substrates was confirmed when possible by MALDI-TOF-MS, see File S1 for details. The test solution contained 50 mM HEPES (pH 7.5), 50 mM NaCl, 50 µM FeSO4, 500 µM α-KG, 500 µM ascorbate, 2 mM NAD, approximately 0.05 unit of FDH and e.g. 4.88 µM KDM4C (enzyme concentration varied between batches). The reference solution was comprised of the same except substrate. The assay was initiated by adding various concentrations of H3 peptide substrates e.g. H3(1–24)K9me3 (10–1000 µM) and the increase in NADH fluorescence was measured over 15–30 minutes in 30 second intervals. Data analysis and kinetic values were obtained using programs Excel and GraphPad Prism® 5.0. For details, see File S1.
The standard deviations for k cat/K m were calculated using the statistic law of propagation of errors. Standard errors for Michaelis-Menten Kinetics were automatically given in GraphPad Prism®, with a 95% confidence interval. All enzyme kinetic curves were done in triplicate unless otherwise stated.
Test for activity of enzyme using the fluorescence FDH assay, determination of Vmax and Km of enzymes with substrate, expression and purification of cc-KDM4A and cc-KDM4C software and parameters for the FDH coupled assay, see Lohse et al.^21
Recombinant baculoviridae encoding the full Open Reading Frame (ORF) of FL-KDM4A and FL-KDM4C were generously donated from the Biotech Research and Innovation Centre (BRIC), University of Copenhagen, Denmark. Recombinant protein was expressed by adding High Titer Stocks to High Five (Trichopulsia ni) insect cells in suspension culture. The cell cultures were harvested by centrifugation after ~ 60 hours and the cells were resuspended in hypotonic buffer (25 mM Hepes-KOH, pH 7.7, 1.5 mM MgCl, 5 mM KCl) supplemented with one protease inhibitor cocktail tablet per 500 ml expression (Roche, EDTA-free). The resuspended cells were frozen at -20 °C.
Both proteins were purified by IMAC using Talon FF (Clontech) cobalt resin according to the following protocol; resuspended cells were thawed on ice, 100 ml hypotonic buffer was added per 500 ml expression volume and the cells were incubated with stirring for 30 min. at 4 °C, followed by a brief (30 s per 500 ml culture volume) sonication. β-mercaptoethanol (BME, 2 mM final concentration), Triton X-100 (0.2 % final concentration) and NaCl (300 mM final concentration) were added and the cell suspension was stirred for another 30 min at 4 °C. The lysate was cleared by centrifugation at 50.000 g for 60 minutes. The cleared lysates were adjusted to 5 mM imidazole and incubated with Talon resin (1 ml /500 ml expression) for 60 minutes. The resin was allowed to sediment, the lysate removed and the resin was transferred to PD-10 gravity flow columns (GE Healthcare). The resin was washed with 10 column volumes of binding buffer (50 mM Hepes-KOH, pH 7.7, 300 mM NaCl, 5 mM imidazole, 10% glycerol, 0.05 % Triton X-100, 2 mM BME) and eluted with 2 x 2.5 ml elution buffer (50 mM Hepes-KOH, pH 7.7, 300 mM NaCl, 100 mM imidazole, 10 % glycerol, 0.05 % Triton X-100, 2 mM BME). Each eluted fraction has its buffer changed to 50 mM Hepes pH 7.5, 300 mM NaCl, 10 % glycerol using a PD-10 desalting column. The protein was concentrated to 6-7 mg/ml (FL-KDM4A) or 10-12 mg/ml (FL-KDM4C). Despite the buffer change it is likely that small amounts of Triton X-100 remained in the protein samples. Triton X-100 has a significant absorbance at 280 nm, so the protein concentration was determined by Bradford assay using a BSA standard curve. The protein purity was approximately 70 % as judged from SDS-PAGE. The concentrated protein was aliquoted and stored at -80 °C until assays were performed.
The standard deviations for kcat/ Km were calculated using the statistic law of propagation of errors. […]

[1] = SD by propagation of errors, unit: (min^−1 * µM^−1) * 10^3

Row | Substance | demethylation / catalytic activity (in words) | K m | k cat | k cat /K m [1] | k cat /K m (figures) [min^-1 * μM^-1 * 10^3] | demethylation / catalytic activity (in words) (listed as H3K9me3) | fold increase in k cat/K m (compared to H3(1–24)K9me3) [fold]
1 | H3(1–24)K9me3T11(ph): H3(1–24)K9me3 with phosphorylation of threonine 11 | no detectable turnover | 0 | 0 | 0 |  |  | 
2 | H3(1–24)K9me2: truncated histone tail, 24 first amino acids from the N-terminus of H3, dimethylated lysine 9 |  | 79±10 |  | 1.3±0.2 | 2 ± 0.4 |  | 
3 | H3(1–24)K9me3: truncated histone tail, 24 first amino acids from the N-terminus of H3, trimethylated lysine 9; control peptide |  | 57±5 | 0.7±0.1 | 12±2 | 12 ± 2 | preference for the H3K9me3 over the H3K9me2; also recorded: an order of magnitude higher activity towards trimethylated H3K9me3 compared to dimethylated H3K9me2 substrates | 
4 | H3(1–24)K4me3K9me3: bis-tri-methylated substrate, trimethylated K4 in combination with H3K9me3 | a small difference in activity between H3(1–24)K9me3 and H3(1–24)K4me3-K9me3 | 42±3 | 1.1±0.2 | 24±3 | 24 ± 3 |  | 2
